Common to all, as to test: G' assay (10 uM PL peptide), results of TABLE 7 and TABLE 12
Assay type in all cases: binding

Assay [1] addresses T1, PDZ protein (GST-PDZ fusion) (Homo sapiens, UniProt Q8N3R9).
T1 construct: made in house; host or cells: E. coli (DH5alpha, BL21 or JM109)
To be noted: PDZ FLJ 12615 (PALS-1), PDZ Domain 1. In outline:
(§1)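 Binding classes derive from A450 nm of bound biotin-tagged PL peptide. A score of 5 needs A450 above 4 in more than two repeats.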

Assay [2] deals with T2, PDZ protein (GST-PDZ fusion) (Homo sapiens, UniProt Q9NZW5).
T2 construct: made in house; host or cells: E. coli (DH5alpha, BL21 or JM109)
T2 sequence (Q9NZW5 1-540): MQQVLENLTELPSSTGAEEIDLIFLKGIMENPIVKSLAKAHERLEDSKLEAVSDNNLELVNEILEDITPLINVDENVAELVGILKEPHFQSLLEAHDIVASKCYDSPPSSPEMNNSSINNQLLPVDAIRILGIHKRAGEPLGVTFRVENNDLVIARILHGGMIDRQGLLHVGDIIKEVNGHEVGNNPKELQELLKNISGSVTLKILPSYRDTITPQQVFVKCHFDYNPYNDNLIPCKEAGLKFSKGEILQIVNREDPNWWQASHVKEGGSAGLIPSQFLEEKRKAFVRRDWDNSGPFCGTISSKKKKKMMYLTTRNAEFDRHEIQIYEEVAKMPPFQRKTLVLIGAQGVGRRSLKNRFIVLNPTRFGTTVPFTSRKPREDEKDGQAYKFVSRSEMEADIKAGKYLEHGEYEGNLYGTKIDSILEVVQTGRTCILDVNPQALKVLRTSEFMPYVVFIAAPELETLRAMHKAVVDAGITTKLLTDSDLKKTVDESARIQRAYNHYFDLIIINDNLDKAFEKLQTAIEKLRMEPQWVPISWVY
The note with it: PDZ P55T, PDZ Domain 1. In outline:
as §1

The target in assay [3] is T3, PDZ protein (GST-PDZ fusion) (Homo sapiens, UniProt Q8TDM6).
T3 construct: made in house; host or cells: E. coli (DH5alpha, BL21 or JM109)
T3 sequence (Q8TDM6 whole entry, the tested form may be a part): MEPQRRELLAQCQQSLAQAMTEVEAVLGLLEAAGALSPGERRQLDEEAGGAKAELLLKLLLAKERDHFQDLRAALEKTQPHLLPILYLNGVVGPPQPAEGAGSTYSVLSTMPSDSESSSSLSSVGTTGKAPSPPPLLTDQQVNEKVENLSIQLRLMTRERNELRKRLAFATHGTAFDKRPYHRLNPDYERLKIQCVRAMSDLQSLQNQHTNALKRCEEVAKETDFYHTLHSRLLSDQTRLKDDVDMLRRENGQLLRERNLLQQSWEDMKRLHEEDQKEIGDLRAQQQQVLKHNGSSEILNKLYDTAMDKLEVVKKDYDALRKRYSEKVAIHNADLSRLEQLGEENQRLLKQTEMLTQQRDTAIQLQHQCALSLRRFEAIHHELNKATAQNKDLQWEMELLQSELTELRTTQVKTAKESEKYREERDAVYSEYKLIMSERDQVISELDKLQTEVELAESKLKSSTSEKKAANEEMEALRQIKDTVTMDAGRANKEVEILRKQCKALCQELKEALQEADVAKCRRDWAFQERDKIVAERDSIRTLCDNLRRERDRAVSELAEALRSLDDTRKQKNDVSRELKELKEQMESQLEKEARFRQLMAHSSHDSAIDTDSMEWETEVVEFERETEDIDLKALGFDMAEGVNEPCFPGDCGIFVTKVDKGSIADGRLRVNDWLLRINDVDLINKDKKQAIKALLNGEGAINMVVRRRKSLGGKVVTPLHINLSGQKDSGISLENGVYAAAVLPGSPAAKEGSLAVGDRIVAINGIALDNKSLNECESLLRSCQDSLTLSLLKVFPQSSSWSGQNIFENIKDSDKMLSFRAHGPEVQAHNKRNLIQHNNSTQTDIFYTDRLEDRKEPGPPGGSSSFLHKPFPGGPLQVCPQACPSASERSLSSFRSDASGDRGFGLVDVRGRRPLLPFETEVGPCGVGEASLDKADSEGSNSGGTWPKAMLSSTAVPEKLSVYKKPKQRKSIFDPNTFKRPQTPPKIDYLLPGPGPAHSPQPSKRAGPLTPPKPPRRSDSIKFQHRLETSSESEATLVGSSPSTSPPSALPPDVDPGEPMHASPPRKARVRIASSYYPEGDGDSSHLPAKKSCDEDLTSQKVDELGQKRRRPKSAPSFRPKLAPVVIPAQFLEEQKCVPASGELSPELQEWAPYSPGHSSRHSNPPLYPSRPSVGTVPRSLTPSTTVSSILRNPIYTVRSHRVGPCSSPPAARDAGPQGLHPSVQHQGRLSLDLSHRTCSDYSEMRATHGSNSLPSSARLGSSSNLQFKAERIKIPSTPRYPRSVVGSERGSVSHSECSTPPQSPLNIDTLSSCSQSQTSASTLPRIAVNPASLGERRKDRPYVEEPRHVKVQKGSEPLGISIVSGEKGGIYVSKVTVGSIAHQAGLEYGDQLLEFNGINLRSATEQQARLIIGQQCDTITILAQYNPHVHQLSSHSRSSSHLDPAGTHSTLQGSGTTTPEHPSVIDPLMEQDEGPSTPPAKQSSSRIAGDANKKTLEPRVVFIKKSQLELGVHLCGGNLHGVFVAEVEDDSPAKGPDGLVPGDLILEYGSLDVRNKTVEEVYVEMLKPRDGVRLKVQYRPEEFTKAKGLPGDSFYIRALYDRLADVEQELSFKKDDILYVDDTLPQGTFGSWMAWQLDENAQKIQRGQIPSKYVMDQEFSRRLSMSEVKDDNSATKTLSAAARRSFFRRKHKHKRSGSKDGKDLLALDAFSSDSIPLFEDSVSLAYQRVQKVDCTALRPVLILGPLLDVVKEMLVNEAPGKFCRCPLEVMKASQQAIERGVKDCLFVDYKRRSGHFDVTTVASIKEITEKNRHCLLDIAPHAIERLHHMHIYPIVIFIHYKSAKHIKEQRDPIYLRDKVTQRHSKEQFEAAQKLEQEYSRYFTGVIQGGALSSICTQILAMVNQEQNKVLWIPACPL
The note with it: PDZ DLG5, PDZ Domain 2. An outline of the steps:
as §1

Assay [4] concerns the target T4, PDZ protein (GST-PDZ fusion) (Homo sapiens, UniProt Q9H190).
T4 construct: made in house; host or cells: E. coli (DH5alpha, BL21 or JM109)
T4 sequence (Q9H190 1-292): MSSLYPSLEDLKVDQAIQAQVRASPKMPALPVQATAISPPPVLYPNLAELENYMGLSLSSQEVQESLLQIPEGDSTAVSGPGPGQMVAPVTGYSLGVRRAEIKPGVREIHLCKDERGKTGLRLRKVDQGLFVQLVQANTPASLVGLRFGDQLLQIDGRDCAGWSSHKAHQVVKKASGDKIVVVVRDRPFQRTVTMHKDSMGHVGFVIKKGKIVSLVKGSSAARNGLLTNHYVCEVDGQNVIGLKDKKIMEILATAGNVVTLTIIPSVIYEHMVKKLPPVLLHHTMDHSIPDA
An outline of the steps:
as §1

The target of assay [5] is T5, PDZ protein (GST-PDZ fusion) (Homo sapiens, UniProt Q86UR5).
T5 construct: made in house; host or cells: E. coli (DH5alpha, BL21 or JM109)
T5 sequence (Q86UR5 whole entry, the tested form may be a part): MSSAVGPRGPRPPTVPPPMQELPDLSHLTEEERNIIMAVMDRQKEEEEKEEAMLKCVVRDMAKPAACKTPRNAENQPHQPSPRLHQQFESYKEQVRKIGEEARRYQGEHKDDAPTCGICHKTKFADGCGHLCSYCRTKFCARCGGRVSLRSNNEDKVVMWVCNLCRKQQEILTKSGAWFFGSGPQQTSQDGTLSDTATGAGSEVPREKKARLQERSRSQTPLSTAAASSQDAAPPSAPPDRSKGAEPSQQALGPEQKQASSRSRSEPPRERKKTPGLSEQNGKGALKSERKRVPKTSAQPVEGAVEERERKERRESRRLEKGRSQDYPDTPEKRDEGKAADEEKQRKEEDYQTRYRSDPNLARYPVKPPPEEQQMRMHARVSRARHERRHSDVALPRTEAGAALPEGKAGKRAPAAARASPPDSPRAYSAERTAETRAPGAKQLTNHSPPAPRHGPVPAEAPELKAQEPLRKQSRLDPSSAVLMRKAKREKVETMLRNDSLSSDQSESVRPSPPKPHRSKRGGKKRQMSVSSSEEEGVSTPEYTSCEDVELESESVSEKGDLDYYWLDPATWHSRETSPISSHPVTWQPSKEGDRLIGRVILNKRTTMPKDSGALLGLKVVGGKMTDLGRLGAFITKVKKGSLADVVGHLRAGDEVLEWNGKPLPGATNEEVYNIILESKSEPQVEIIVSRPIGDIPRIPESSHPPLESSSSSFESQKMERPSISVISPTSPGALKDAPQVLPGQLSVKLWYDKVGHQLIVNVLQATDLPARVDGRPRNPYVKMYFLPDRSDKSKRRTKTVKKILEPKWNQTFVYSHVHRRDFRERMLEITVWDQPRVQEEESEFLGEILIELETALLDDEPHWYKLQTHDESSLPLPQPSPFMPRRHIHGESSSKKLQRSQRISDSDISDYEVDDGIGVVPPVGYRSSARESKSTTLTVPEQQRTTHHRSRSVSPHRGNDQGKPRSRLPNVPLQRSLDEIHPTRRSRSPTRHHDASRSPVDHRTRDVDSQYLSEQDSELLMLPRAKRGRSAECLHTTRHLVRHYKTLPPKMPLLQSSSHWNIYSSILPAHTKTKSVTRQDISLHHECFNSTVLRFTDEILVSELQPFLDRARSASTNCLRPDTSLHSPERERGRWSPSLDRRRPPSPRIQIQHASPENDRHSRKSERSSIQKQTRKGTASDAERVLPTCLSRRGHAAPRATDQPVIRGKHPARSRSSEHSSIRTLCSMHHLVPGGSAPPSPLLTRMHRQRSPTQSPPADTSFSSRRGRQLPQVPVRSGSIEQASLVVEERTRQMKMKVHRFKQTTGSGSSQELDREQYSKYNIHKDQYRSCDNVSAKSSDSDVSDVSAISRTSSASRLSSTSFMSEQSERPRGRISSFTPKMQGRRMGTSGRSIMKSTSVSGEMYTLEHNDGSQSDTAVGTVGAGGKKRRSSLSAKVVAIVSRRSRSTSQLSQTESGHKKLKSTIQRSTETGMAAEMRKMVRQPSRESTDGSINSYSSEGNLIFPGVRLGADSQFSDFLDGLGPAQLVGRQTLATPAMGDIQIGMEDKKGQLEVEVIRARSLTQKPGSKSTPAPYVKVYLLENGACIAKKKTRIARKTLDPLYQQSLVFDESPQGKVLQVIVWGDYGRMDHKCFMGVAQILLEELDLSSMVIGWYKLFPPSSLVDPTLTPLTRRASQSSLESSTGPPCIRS
The note with it: PDZ KIAA0340, PDZ Domain 1. An outline of the steps: as §1

For assay [6], the target named is T6, PDZ protein (GST-PDZ fusion) (Homo sapiens, UniProt Q8IVF5).
T6 construct: made in house; host or cells: E. coli (DH5alpha, BL21 or JM109)
The note with it: PDZ TIAM-2, PDZ Domain 1. In outline: as §1

Ends that are not written are not given here. Peptide text beside a SMILES is read from it. * marks the point of attachment. Biotin = O=C1N[C@H]2[C@H](CS[C@H]2CCCCC(=O)*)N1

T1 sequence (Q8N3R9 whole entry, the tested form may be a part): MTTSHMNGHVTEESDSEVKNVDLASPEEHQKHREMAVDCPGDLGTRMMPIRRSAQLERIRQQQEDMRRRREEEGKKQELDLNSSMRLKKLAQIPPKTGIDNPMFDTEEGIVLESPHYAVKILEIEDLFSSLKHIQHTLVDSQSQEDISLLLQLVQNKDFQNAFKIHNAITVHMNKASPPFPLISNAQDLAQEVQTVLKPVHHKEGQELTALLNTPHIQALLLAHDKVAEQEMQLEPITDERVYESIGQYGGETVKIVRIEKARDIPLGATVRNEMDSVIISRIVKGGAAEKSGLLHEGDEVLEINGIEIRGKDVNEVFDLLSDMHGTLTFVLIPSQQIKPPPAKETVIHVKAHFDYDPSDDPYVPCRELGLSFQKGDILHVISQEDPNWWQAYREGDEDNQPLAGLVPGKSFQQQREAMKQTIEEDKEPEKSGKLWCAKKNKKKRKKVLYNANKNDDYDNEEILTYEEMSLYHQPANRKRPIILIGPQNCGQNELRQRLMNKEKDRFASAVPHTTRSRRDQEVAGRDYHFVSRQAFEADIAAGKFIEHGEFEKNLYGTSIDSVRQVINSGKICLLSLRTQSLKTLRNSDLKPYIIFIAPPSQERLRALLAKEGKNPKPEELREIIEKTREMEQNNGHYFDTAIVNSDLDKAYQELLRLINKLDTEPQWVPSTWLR

Turning to `CSCC[C@H](NC(=O)[C@H](C)NC(=O)[C@H](CCCNC(=N)N)NC(=O)CNC(=O)[C@@H](NC(=O)[C@H](Cc1c[nH]c2ccccc12)NC(=O)[C@H](CCCNC(=N)N)NC(=O)CNC(=O)CCCC[C@@H]1SC[C@@H]2NC(=O)N[C@@H]21)[C@@H](C)O)C(=O)N[C@@H](CO)C(=O)N[C@@H](C)C(=O)N[C@@H](Cc1c[nH]c2ccccc12)C(=O)N[C@@H](CCCCN)C(=O)N1CCC[C@H]1C(=O)N[C@H](C(=O)N[C@@H](CCCNC(=N)N)C(=O)N[C@@H](CCCNC(=N)N)C(=O)N[C@@H](CCC(=O)O)C(=O)N[C@H](C(=O)N[C@@H](CCC(=O)O)C(=O)N[C@H](C(=O)O)C(C)C)[C@@H](C)O)[C@@H](C)O` [HPV E6 #35 (modified)] (Biotin-GRWTGRAMSAWKPTRRETEV-OH; C-terminus assumed), the Classification in assay [1] was 1 (A450 nm 0-1).

On to “KTMPAAMFRLLTGQETPLYI (Biotin-KTMPAAMFRLLTGQETPLYI) [MINT-2]”, for which the Classification in assay [2] was 1 (A450 nm 0-1). As for “A2AA_HUMAN (modified) (Biotin-HDFRRAFKKILARGDRKRIV; not fully specified)”, the Classification is listed as 1 (A450 nm 0-1) in assay [3]; 4 (A450 nm 3-4) in assay [4] (PDZ SITAC-18, PDZ Domain 1); 4 (A450 nm 3-4) in assay [4] (PDZ SITAC-18, PDZ Domain 2); 1 (A450 nm 0-1) in assay [5].

As for “ELLQFCRTPNPALKNGQYWV (Biotin-ELLQFCRTPNPALKNGQYWV)”, in assay [6], the Classification is recorded as 3 (A450 nm 2-3).

The record behind these values is US20050282743A1, “Molecular interactions in cells” (Arbor Vita Corporation, priority 2001, published 2005).
